In patent US5217864, “Replication initiator protein complex and methods of use thereof” (The Rockefeller University):

Molecular target: OTF1/NFIII (UniProt P14859 P14859:1-743)
Test: EMSA; data not shown

Chain of OTF1/NFIII (P14859 whole entry, one chain of several): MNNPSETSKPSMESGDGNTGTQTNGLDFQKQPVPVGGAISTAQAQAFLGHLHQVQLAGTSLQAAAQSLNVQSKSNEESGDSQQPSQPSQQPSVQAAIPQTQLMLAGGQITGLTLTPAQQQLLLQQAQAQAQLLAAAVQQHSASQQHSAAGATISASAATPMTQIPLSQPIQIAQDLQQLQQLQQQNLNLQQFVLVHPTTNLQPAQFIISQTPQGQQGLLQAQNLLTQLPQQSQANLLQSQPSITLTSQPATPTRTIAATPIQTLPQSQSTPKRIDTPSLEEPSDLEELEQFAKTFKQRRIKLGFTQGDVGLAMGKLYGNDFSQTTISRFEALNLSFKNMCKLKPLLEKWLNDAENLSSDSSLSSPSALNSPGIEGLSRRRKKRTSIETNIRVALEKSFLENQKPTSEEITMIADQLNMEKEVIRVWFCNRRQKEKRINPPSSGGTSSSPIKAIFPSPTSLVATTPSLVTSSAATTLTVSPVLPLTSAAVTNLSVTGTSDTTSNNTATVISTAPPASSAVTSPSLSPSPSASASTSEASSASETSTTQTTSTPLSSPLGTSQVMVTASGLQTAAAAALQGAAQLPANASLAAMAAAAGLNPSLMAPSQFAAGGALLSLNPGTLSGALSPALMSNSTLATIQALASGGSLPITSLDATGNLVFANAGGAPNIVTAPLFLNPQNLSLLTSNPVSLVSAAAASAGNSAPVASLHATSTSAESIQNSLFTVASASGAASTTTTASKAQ

B1: OTF1 site at 5' end of 280 bp fragment (dsDNA)
DNA 1: ATTTTCAT
DNA 2: ATGAAAAT
binding result: binds
